From the supplement of paper PMC12042874
± gives the uncertainty stated by the source.

Assay: amyloid nucleation score (Sup35N fusion, yeast selection) (log enrichment); library NNK3; higher = more nucleation; inactive = no reads after selection
In short: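 Sup35N fusions to peptides of 20 random codons were expressed in psi-negative yeast, induced 24 hours with 100 μM copper sulfate, and grown 7 days at 30°C on medium lacking adenine and uracil. Input and output plasmid inserts were sequenced by Illumina. The nucleation score is the DiMSum log enrichment of output over input reads, centred on the mode score of non-aggregating sequences. Sequences with under 100 input reads were excluded.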
With SRFLLRNCPFLSGHVFTSQT the amyloid nucleation score was “inactive”.
For KSCLCSSTKRKLNRLTYTDR, the amyloid nucleation score was “inactive”.
For YIPIYRFVMIS, the amyloid nucleation score was “inactive”.
Substance VHVYFRLADL has an amyloid nucleation score of 1.3 ± 0.14.
For NIILCCAKVFKPYMSTMTTP, the amyloid nucleation score was 1.98 ± 0.061.
SFLWGFCRTKETGGSFMFNR gave an amyloid nucleation score of 0.264 ± 0.62.
In the case of GICKGNMYRFSMSYDSNLIM, the amyloid nucleation score is reported as “inactive”.
In the case of GSRYRWVTATTIMSCGYEQE, the amyloid nucleation score is reported as “inactive”.
In the case of YCVFGWIKAWPGGLVVNEFR, the amyloid nucleation score is reported as “inactive”.
For QCFKDRMWHGICREPVAKIG, the amyloid nucleation score was “inactive”.
For HIRSSDHGGSLTGLTCRDTD, the amyloid nucleation score was “inactive”.
In the case of CMFLGSELCWRRPRGS, the amyloid nucleation score is reported as 0.443 ± 0.32.
With NNDIVKGSPPPWVMFLVALH the amyloid nucleation score was “inactive”.
In the case of WGFLQLHEPS, the amyloid nucleation score is reported as “inactive”.
In the case of SFKMSVVAGVRTLGIFVWVF, the amyloid nucleation score is reported as “inactive”.
LNEVTVLTIMMCLRS showed an amyloid nucleation score of 0.971 ± 0.16.
In the case of TVVRNGIKTVYGLVDCVDS, the amyloid nucleation score is reported as “inactive”.
ESSISTLFIFNMVGPQ gave an amyloid nucleation score of 2.21 ± 0.068.
With NMRGEFQTLANWVWLLQRVL the amyloid nucleation score was “inactive”.
For RLIYLWVPYCNMCRCGLLCK, the amyloid nucleation score was “inactive”.
In the case of LIPFCAVHPLWEHHLSKSFF, the amyloid nucleation score is reported as “inactive”.
Work on LCLMDRGYVS yielded an amyloid nucleation score of -0.779 ± 1.4.
Substance ETYNRR has an amyloid nucleation score of -0.227 ± 0.69.
In the case of QTSRT, the amyloid nucleation score is reported as “inactive”.
With NVFSFFTTSSEKGLCPPRRS the amyloid nucleation score was “inactive”.
With MCSGAAFMRRVC the amyloid nucleation score was “inactive”.
With YYMNVESALECECWTIFKPC the amyloid nucleation score was “inactive”.
In the case of WLGKYVLVSEYIV, the amyloid nucleation score is reported as “inactive”.
With ILRWRHMVVWSPNVHGVGAF the amyloid nucleation score was “inactive”.
In the case of HKSIYF, the amyloid nucleation score is reported as “inactive”.
For KVMNLVRFRTDFLESNMRWC, the amyloid nucleation score was 0.751 ± 0.17.
For GFYVRRGCLWGGYNHVFAIF, the amyloid nucleation score was “inactive”.
With LFSTNNYNQLWGMVGFLGFG the amyloid nucleation score was “inactive”.
With GFKVVSSLDFSCG the amyloid nucleation score was 0.55 ± 0.31.
With TAYVNSGVEIYGFSVTRNNS the amyloid nucleation score was 1.48 ± 0.11.
With YYSFFDIFCVITSRANFGRP the amyloid nucleation score was 1.28 ± 0.17.
LYHRAIGRSRQRENPSQKGG gave an amyloid nucleation score of -0.048 ± 0.39.
Work on INPLLR yielded an amyloid nucleation score of 0.744 ± 0.2.
For GICIGTDKTFYCLGMSFF, the amyloid nucleation score was “inactive”.
For CRCRFLAVWWNSVGYNDGVG, the amyloid nucleation score was “inactive”.
With LFATAEPMLRWVRSRLV the amyloid nucleation score was “inactive”.
In the case of RIFFGISVIQFLIRSYSVHR, the amyloid nucleation score is reported as “inactive”.
With GMTDNVPLGVKVKREMCQFA the amyloid nucleation score was “inactive”.
In the case of ATLDTER, the amyloid nucleation score is reported as “inactive”.
With LCMADYVRGTWVYVPYFWMC the amyloid nucleation score was “inactive”.
In the case of FFGKAT, the amyloid nucleation score is reported as “inactive”.
In the case of LSTSL, the amyloid nucleation score is reported as “inactive”.
In the case of DLVVNGSFNTDTCFETVSVH, the amyloid nucleation score is reported as “inactive”.
RCNPGLVCLGCTFVSRNAYS gave an amyloid nucleation score of 1.67 ± 0.081.
For CVGYMGLGALEYIVNAHGGI, the amyloid nucleation score was “inactive”.
In the case of WVFVDLLSNVVFNGKIVERC, the amyloid nucleation score is reported as “inactive”.
For GWTGVVFPVVSINSYQFTLF, the amyloid nucleation score was 0.757 ± 0.33.
With LYDDVSTVWNKKTEVGQLLN the amyloid nucleation score was “inactive”.
For AVIDRNYVRTALAVMIASGH, the amyloid nucleation score was “inactive”.
For VPGDEHRDGKLGAKWWTCRR, the amyloid nucleation score was “inactive”.
In the case of IKLHGQAHLIMSTLLPYMHK, the amyloid nucleation score is reported as “inactive”.
With KTKVTALCNIKGNNGHFPKH the amyloid nucleation score was “inactive”.
In the case of SWTQVKRYSRSTIAILAFHT, the amyloid nucleation score is reported as “inactive”.
For MYEVVRVKYMVAQQFNISSE, the amyloid nucleation score was “inactive”.
For VWYDRSEGLARAHNLYSGSE, the amyloid nucleation score was “inactive”.
For VSTRGITDMMLGDMAVVNVG, the amyloid nucleation score was “inactive”.
For GLYSLYLFGTLYRQAQRGCE, the amyloid nucleation score was 0.52 ± 0.21.
In the case of RNYRGTSEIRCVPWLSSVSW, the amyloid nucleation score is reported as “inactive”.
In the case of CERKQVYNDRRINS, the amyloid nucleation score is reported as “inactive”.
With QQDTNDSGYYGRVGMLVSYW the amyloid nucleation score was “inactive”.
Work on CEDGA yielded an amyloid nucleation score of -0.068 ± 0.75.
With SHSNKSMRVNALSKWLY the amyloid nucleation score was “inactive”.
With YVSTHLSVYTKSFRDMIAPG the amyloid nucleation score was “inactive”.
For RICMRLVNMTLMCQISGVLG, the amyloid nucleation score was “inactive”.
With WGSGY the amyloid nucleation score was “inactive”.
With YRLRNCFRHMPAAQTFTP the amyloid nucleation score was “inactive”.
In the case of PGLCGNGHNDHKTVNIEVYH, the amyloid nucleation score is reported as “inactive”.
In the case of MMGSVQLVHSIEYSCMHGTS, the amyloid nucleation score is reported as “inactive”.
For TWAWPGRYYQWLQLQLGLNK, the amyloid nucleation score was “inactive”.
For VYVHLRNLQSL, the amyloid nucleation score was “inactive”.
Substance FSAIWMSRQSYLRINGSPAF has an amyloid nucleation score of 0.088 ± 0.29.
With GRGVDWMKQWNVHRKVLSSL the amyloid nucleation score was “inactive”.
With TSPPGRIDMQTSWDMFYADE the amyloid nucleation score was “inactive”.
With VQLSMPGFGDWCRIRWVTAG the amyloid nucleation score was “inactive”.
With QNLDSMRGGIRSLLVIIRKS the amyloid nucleation score was “inactive”.
For SRCWGDILPLNIQYLMR, the amyloid nucleation score was “inactive”.
With DKRDNMYICVCRYCHETWCI the amyloid nucleation score was -0.397 ± 0.66.
For FARKWCVKNGYGSRTSASFM, the amyloid nucleation score was “inactive”.
In the case of FNVLNVNS, the amyloid nucleation score is reported as “inactive”.
In the case of NWLCDRVRCCWKLNNNDMKL, the amyloid nucleation score is reported as -0.22 ± 0.88.
For GRLCYNSTNYLRHAASCLSM, the amyloid nucleation score was “inactive”.
For TIHYG, the amyloid nucleation score was “inactive”.
In the case of SNSMS, the amyloid nucleation score is reported as “inactive”.
With NVYIVSIRMFCDYRVTAPKT the amyloid nucleation score was 2.35 ± 0.068.
In the case of LLIMKGCAC, the amyloid nucleation score is reported as “inactive”.
STWYSFDFRYFLDTIVCHMF showed an amyloid nucleation score of 1.68 ± 0.11.
With DERKPVGSHDGYSYVSVVTR the amyloid nucleation score was “inactive”.
In the case of NKYLMINLGYQGSKENDIGV, the amyloid nucleation score is reported as “inactive”.
For NRNATSCGKPAFNKWNYFCQ, the amyloid nucleation score was “inactive”.
With NILEYYLLTGLYVAFLYLNR the amyloid nucleation score was “inactive”.
For VQAYLCEYR, the amyloid nucleation score was “inactive”.
IYSALYLYRTPKSVYQVTQS showed an amyloid nucleation score of -0.575 ± 1.
In the case of TVWKGIREYSRS, the amyloid nucleation score is reported as “inactive”.
In the case of HFKVFT, the amyloid nucleation score is reported as “inactive”.
For RGLLEANMLGSSGDPSVNSG, the amyloid nucleation score was “inactive”.
For FLHVRLRHSWVV, the amyloid nucleation score was “inactive”.
For SIAIHWTLICGLYLSNSSRA, the amyloid nucleation score was “inactive”.
For KLKPMPNWSRLSRDWVLCCS, the amyloid nucleation score was “inactive”.
With FVESIAVLKLFNTVKWITFF the amyloid nucleation score was “inactive”.
In the case of NVTNSRHHLQFGYMRAMVNV, the amyloid nucleation score is reported as “inactive”.
For TGLKYRLY, the amyloid nucleation score was “inactive”.
With KGYSKCEDPMLECYYCTPVN the amyloid nucleation score was “inactive”.
For YLMVNICMNDPWVYEMVSLY, the amyloid nucleation score was 0.902 ± 0.2.
In the case of FCLVFSELILFCVCSWVNST, the amyloid nucleation score is reported as “inactive”.
For MGADGSLRALKRARS, the amyloid nucleation score was “inactive”.
In the case of WISEDTRLLHWLLQCVWIRI, the amyloid nucleation score is reported as -0.531 ± 1.4.
With VCGLLL the amyloid nucleation score was “inactive”.
In the case of FLSKTLYIVVSHGVGTSGTG, the amyloid nucleation score is reported as “inactive”.
With NGFGSNNVGSGERLADVAVI the amyloid nucleation score was “inactive”.
In the case of IYCKVVALKRFHWMEAYA, the amyloid nucleation score is reported as “inactive”.
VGNFLTLSVWDNSGRRIGEE gave an amyloid nucleation score of 0.705 ± 0.19.
For YVWRDLKAMGFVYAGVCGKA, the amyloid nucleation score was “inactive”.
With MLDSRYGKMCRGEW the amyloid nucleation score was “inactive”.
With VTGLEVRHQRHIWHNMGMIR the amyloid nucleation score was “inactive”.
With PVLLIRSKFDQRRAWSFHTV the amyloid nucleation score was “inactive”.
In the case of NNLSNWIRKVCNSYYHPTYQ, the amyloid nucleation score is reported as “inactive”.
For SRYFYDADYLFGGHSVAGQI, the amyloid nucleation score was “inactive”.
In the case of LVGMDTGIVNDSIDGPGYWV, the amyloid nucleation score is reported as “inactive”.
With QLCLKGSPIVVVRCLRHNKI the amyloid nucleation score was “inactive”.
In the case of RCLSDCYVRNECTF, the amyloid nucleation score is reported as “inactive”.
IRTFIIQADSSVVPIKVFYR gave an amyloid nucleation score of 1.55 ± 0.099.
For LHCFIAQFMQRYFREWSGNG, the amyloid nucleation score was “inactive”.
Work on CVRNENRSGS yielded an amyloid nucleation score of -0.974 ± 2.5.
With EYYLDMDLMFMMG the amyloid nucleation score was “inactive”.
For RYNNYTSESGPCN, the amyloid nucleation score was “inactive”.
With SCSWVREWYRRLHRWGCGQW the amyloid nucleation score was 0.656 ± 0.28.
Substance VNSLVSRQINFIEVRRSMRW has an amyloid nucleation score of 0.849 ± 0.23.
With TLLPAVQIWHDIKHSTRTSW the amyloid nucleation score was “inactive”.
In the case of VMLHSRFGRFRDNVTL, the amyloid nucleation score is reported as “inactive”.
Work on TLKCQHCIHVLGCVDMLTNF yielded an amyloid nucleation score of 1.46 ± 0.11.
In the case of KMRRVLLSLSVYMNCKSMVR, the amyloid nucleation score is reported as “inactive”.
With GTIRQS the amyloid nucleation score was “inactive”.
Work on GFKVVYKIWLPASRSACDPW yielded an amyloid nucleation score of 1.31 ± 0.13.
For NIVERQDLLLGLANNWLHLT, the amyloid nucleation score was “inactive”.
For YGMLFYIYYMPRIFQYAVNL, the amyloid nucleation score was 1.56 ± 0.065.
For NSGLSG, the amyloid nucleation score was “inactive”.
With SGKHPSYNREPKGSVSVLGA the amyloid nucleation score was “inactive”.
SAREKIVLRVS gave an amyloid nucleation score of -0.684 ± 1.1.
For RALTLADASGMRGINSGTMK, the amyloid nucleation score was “inactive”.
Substance MYGLHLNPALITVYFRGKGL has an amyloid nucleation score of -0.018 ± 0.34.
With NPSTLYCGSLHSLVLRSFLI the amyloid nucleation score was “inactive”.
For FKNLGNTFGLTKRVCV, the amyloid nucleation score was “inactive”.
For DPVEIRG, the amyloid nucleation score was “inactive”.
For KSHWTTM, the amyloid nucleation score was 1.64 ± 0.11.
For LYLFTPVWDFNCLPFGLAYK, the amyloid nucleation score was “inactive”.
With YYVSYN the amyloid nucleation score was “inactive”.
With TDYPLLMLL the amyloid nucleation score was “inactive”.
In the case of PYSKELVHVTSSSATFTRCE, the amyloid nucleation score is reported as “inactive”.
In the case of DNKSL, the amyloid nucleation score is reported as “inactive”.
RSIGIAFLGIVGVYNMLASQ gave an amyloid nucleation score of -0.195 ± 0.59.
In the case of HCRAYITEPCKTWLY, the amyloid nucleation score is reported as “inactive”.
In the case of GMNYNKMRTVLSRAPPRVRS, the amyloid nucleation score is reported as “inactive”.
For TEYRYVLSISCH, the amyloid nucleation score was “inactive”.
SSLGNSLVMYVVCAWVN gave an amyloid nucleation score of 0.273 ± 0.37.
